Measured values: patent EP1165135B1 (City of Hope, dated 2004)
Where a chain is given by its changes, count along the chain named.

B1: human RXRα (9-cis retinoic acid receptor), full-length, wild type (receptor, UniProt P19793 1-462, looked up)
chain: MDTKHFLPLDFSTQVNSSLTSPTGRGSMAAPSLHPSLGPGIGSPGQLHSPISTLSSPINGMGPPFSVISSPMGPHSMSVPTTPTLGFSTGSPQLSSPMNPVSSSEDIKPPLGLNGVLKVPAHPSGNMASFTKHICAICGDRSSGKHYGVYSCEGCKGFFKRTVRKDLTYTCRDNKDCLIDKRQRNRCQYCRYQKCLAMGMKREAVQEERQRGKDRNENEVESTSSANEDMPVERILEAELAVEPKTETYVEANMGLNPSSPNDPVTNICQAADKQLFTLVEWAKRIPHFSELPLDDQVILLRAGWNELLIASFSHRSIAVKDGILLATGLHVHRNSAHSAGVGAIFDRVLTELVSKMRDMQMDKTELGCLRAIVLFNPDSKGLSNPAEVEALREKVYASLEAYCKHKYPEQPGRFAKLLLRLPALRSIGLKCLEHLFFFKLIGDTPIDTFLMEMLEAPHQMT
notes: mature; also called wild-type RXR
B2: RXRm, human RXRα with the point mutation Asp 322→Pro in the ligand binding domain (receptor, UniProt P19793 1-462, looked up)
chain: B1 chain with D322P
notes: mature; Claim 9 prints Asp332→Pro; also called mutant RXR; RXR mutant

Tests used:
[1] = biological target: T1, rat FXR (farnesoid X-activated receptor), full-length (rat, UniProt Q62735 1-469); assay: electrophoretic mobility shift, in vitro translated FXR + RXR on EcRE probe
T1 construct: mature; Full-length protein cloned into pCMX and translated in vitro for the mobility shift assays; also called bile acid nuclear receptor
T1 sequence (looked up): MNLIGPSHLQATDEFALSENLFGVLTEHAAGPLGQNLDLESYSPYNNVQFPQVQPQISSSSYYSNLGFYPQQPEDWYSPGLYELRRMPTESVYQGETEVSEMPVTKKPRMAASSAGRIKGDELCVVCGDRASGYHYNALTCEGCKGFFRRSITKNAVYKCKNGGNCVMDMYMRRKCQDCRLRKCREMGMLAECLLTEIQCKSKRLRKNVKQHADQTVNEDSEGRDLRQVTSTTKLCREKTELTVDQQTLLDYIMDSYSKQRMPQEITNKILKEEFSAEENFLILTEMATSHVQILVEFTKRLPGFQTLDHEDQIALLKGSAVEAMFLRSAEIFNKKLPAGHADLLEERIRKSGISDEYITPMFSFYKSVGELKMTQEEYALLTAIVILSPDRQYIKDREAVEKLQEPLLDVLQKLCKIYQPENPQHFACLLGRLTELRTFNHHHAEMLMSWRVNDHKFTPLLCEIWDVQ

[2] = biological target: T1, rat FXR (farnesoid X-activated …); assay: DNA binding as a heterodimer (Figure 5 and data not shown)
[3] = biological target: T2, GST-GRIP1, the three receptor interaction domains of mouse GRIP1 (Arg 625 - Lys 765) fused to … (mouse, UniProt Q61026 625-765); assay: electrophoretic mobility shift, DR1 probe, LG268 0-1000 nM
T2 construct: Expressed in E. coli and purified on glutathione-sepharose; also called CoA; not shown: glutathione-S-transferase (GST)
T2 sequence (looked up): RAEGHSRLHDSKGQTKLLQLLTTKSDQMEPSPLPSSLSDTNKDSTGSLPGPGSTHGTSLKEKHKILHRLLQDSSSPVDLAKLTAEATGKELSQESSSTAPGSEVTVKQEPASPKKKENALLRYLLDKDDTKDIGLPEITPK

[4] = biological target: T2, GST-GRIP1, the three receptor …; assay: phosphorimager quantitation of the mobility shift autoradiogram against LG268 concentration (Figure 4)

| Binder | binding result [1] | binding result [2] | fold decrease in potency of coactivator recruitment compared to wild type RXR [3] [fold] | fold higher ligand concentration required for recruitment of coactivator (against wild-type RXR) [4] [fold] |
| --- | --- | --- | --- | --- |
| B1 | binds | – | – | – |
| B2 | – | binds | 100 | ~100 |
